Reference: the supplement of paper PMC9233669
Fewer inactive variants are shown than the library holds.

What was measured:
biotinyl-Val-oxazolone = assay: self-aminoacylation, catalytic enhancement (BVO) (fold over background); higher = more active; k-Seq, kA / k0A0; sequences stand for … in GGGAAUGGAUCCACAUCUACGAAUUC…UUCACUGCAGACUUGACGAAGCUG
Outline: (§1)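 Catalytic enhancement equals the median kA over the uncatalyzed rate, the latter read from the low-activity peak of a bimodal Gaussian fit. Values of kA came from fitting each sequence's fraction reacted to a pseudo-first-order model, with 1000 bootstraps. Reacted RNA was captured with streptavidin and quantified by triplicate qPCR and Illumina sequencing after 90 minutes at room temperature with 2–1250 μM biotinyl-aminoacyl-oxazolone and 0.43 μM mutagenized RNA pools bearing a 21-nt variable region.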

biotinyl-Trp-oxazolone = assay: self-aminoacylation, catalytic enhancement (BWO) (fold over background); higher = more active; k-Seq, kA / k0A0; sequences stand for … in GGGAAUGGAUCCACAUCUACGAAUUC…UUCACUGCAGACUUGACGAAGCUG
Outline: as §1

biotinyl-Met-oxazolone = assay: self-aminoacylation, catalytic enhancement (BMO) (fold over background); higher = more active; k-Seq, kA / k0A0; sequences stand for … in GGGAAUGGAUCCACAUCUACGAAUUC…UUCACUGCAGACUUGACGAAGCUG
Outline: as §1

biotinyl-Phe-oxazolone = assay: self-aminoacylation, catalytic enhancement (BFO) (fold over background); higher = more active; k-Seq, kA / k0A0; sequences stand for … in GGGAAUGGAUCCACAUCUACGAAUUC…UUCACUGCAGACUUGACGAAGCUG
Outline: as §1

biotinyl-Ile-oxazolone = assay: self-aminoacylation, catalytic enhancement (BIO) (fold over background); higher = more active; k-Seq, kA / k0A0; sequences stand for … in GGGAAUGGAUCCACAUCUACGAAUUC…UUCACUGCAGACUUGACGAAGCUG
Outline: as §1

biotinyl-Leu-oxazolone = assay: self-aminoacylation, catalytic enhancement (BLO) (fold over background); higher = more active; k-Seq, kA / k0A0; sequences stand for … in GGGAAUGGAUCCACAUCUACGAAUUC…UUCACUGCAGACUUGACGAAGCUG
Outline: as §1

| Sequence | self-aminoacylation (biotinyl-Val-oxazolone) | self-aminoacylation (biotinyl-Trp-oxazolone) | self-aminoacylation (biotinyl-Met-oxazolone) | self-aminoacylation (biotinyl-Phe-oxazolone) | self-aminoacylation (biotinyl-Ile-oxazolone) | self-aminoacylation (biotinyl-Leu-oxazolone) |
| --- | --- | --- | --- | --- | --- | --- |
| AAGUUUGCUAAGAGUCGCAAC [Fam3.1 aminoacylation ribozyme variant] | 1.19 | 1.28 | 1.07 | 0.845 | 1.21 | 1.27 |
| CUACUUCAAACAAACGGUCAG [Fam1A.1 aminoacylation ribozyme variant] | 0.682 | 0.787 | 0.6 | 0.883 | 0.73 | 0.581 |
| AAGUUUGCUAUUCGUCGCAAG [Fam3.1 aminoacylation ribozyme variant] | 0.862 | 0.872 | 1.23 | 0.857 | 0.985 | 0.902 |
| AUGCACCUAGGUCAUCGGGUG [Fam2.2 aminoacylation ribozyme variant] | 4.11 | 6.01 | 5.65 | 30.1 | 4.06 | 6.25 |
| CUAGACUUCAAGCAAUCGGUC [Fam1B.1 aminoacylation ribozyme variant] | 0.979 | 16.2 | 1.05 | 34.1 | 0.981 | 1.37 |
| AAGUUUGCUAAUACUAGCAAG [Fam3.1 aminoacylation ribozyme variant] | 0.567 | 0.476 | 0.798 | 0.734 | 0.59 | 0.722 |
| AUUUACCUAGGUCAUCGGGUU [Fam2.2 aminoacylation ribozyme variant] | 4.59 | 6.98 | 8.02 | 36.2 | 5.12 | 11.7 |
| CUAAUUCAAACAACCGGUCUG [Fam1A.1 aminoacylation ribozyme variant] | 0.754 | 0.69 | 0.958 | 0.916 | 0.947 | 0.724 |
| AUGUUUGCUAAUAGUCUCAAG [Fam3.1 aminoacylation ribozyme variant] | 1.04 | 1.43 | 1.12 | 5.12 | 1.27 | 1.01 |
| GUACUUCAAACAAUCCGUCUG [Fam1A.1 aminoacylation ribozyme variant] | 1.24 | 2.16 | 1.02 | 2.63 | 1.49 | 1.45 |
| AUUACCCUGGUCAUCGUGUAA [Fam2.1 aminoacylation ribozyme variant] | 1.18 | 0.503 | 1.07 | 0.847 | 1.13 | 1.26 |
| GCAUACUUCAAGCAAUCGGUC [Fam1B.1 aminoacylation ribozyme variant] | 2.01 | 18 | 2.03 | 19.8 | 2.35 | 2.19 |
| AUUACCCUGAUCAUCGAGUCA [Fam2.1 aminoacylation ribozyme variant] | 0.786 | 0.305 | 0.577 | 0.555 | 0.738 | 0.722 |
| CUUCACCUUGGUCAUCGGGUG [Fam2.2 aminoacylation ribozyme variant] | 4.27 | 5.5 | 5.39 | 45.5 | 3.13 | 5.93 |
| CUGCUUCAAACAACCGGUCUG [Fam1A.1 aminoacylation ribozyme variant] | 0.932 | 0.921 | 0.664 | 0.915 | 0.683 | 0.793 |
| CCACGCUUGAAGCAAUCGGUC [Fam1B.1 aminoacylation ribozyme variant] | 1.28 | 1.01 | 0.861 | 0.547 | 0.895 | 0.714 |
| AACACCCUGGUCAUCGAGUGA [Fam2.1 aminoacylation ribozyme variant] | 4.39 | 8.34 | 7.5 | 7.58 | 4.52 | 6.79 |
| CUACUUCAAACAGUGGGUCUG [Fam1A.1 aminoacylation ribozyme variant] | 0.823 | 0.989 | 0.764 | 0.834 | 0.995 | 0.935 |
| AACUUGGCUAAUAGUCGCAAG [Fam3.1 aminoacylation ribozyme variant] | 1.71 | 2.31 | 2 | 2.88 | 2.42 | 2.62 |
| AUACUUCAAACAAUGGGUCUG [Fam1A.1 aminoacylation ribozyme variant] | 0.921 | 0.934 | 0.862 | 0.774 | 0.935 | 0.847 |
| AUUCACCUAGGUCUUCGGGCG [Fam2.2 aminoacylation ribozyme variant] | 2.83 | 2.99 | 3.94 | 13.6 | 2.8 | 5.23 |
| CUCCUUCAAACAAUCGGUUUG [Fam1A.1 aminoacylation ribozyme variant] | 1.4 | 30.6 | 1.3 | 43.9 | 1.17 | 1.89 |
| ACUCAGCUAGGUCAUCGGGUG [Fam2.2 aminoacylation ribozyme variant] | 4.84 | 7.25 | 4.79 | 30.7 | 4.07 | 4.79 |
| CUUCUUCAAACAAUCGGACUG [Fam1A.1 aminoacylation ribozyme variant] | 0.677 | 3.43 | 0.652 | 7.56 | 0.822 | 0.698 |
| AUUCACAUAGGUCAUCCGGUG [Fam2.2 aminoacylation ribozyme variant] | 5.53 | 7.74 | 7.79 | 55.9 | 5.32 | 9.85 |
| AUUCACCAAGGUCCUCGGGUG [Fam2.2 aminoacylation ribozyme variant] | 5.39 | 8.35 | 8.8 | 76.6 | 4.66 | 11 |

| Sequence | self-aminoacylation (biotinyl-Val-oxazolone) | self-aminoacylation (biotinyl-Trp-oxazolone) | self-aminoacylation (biotinyl-Met-oxazolone) | self-aminoacylation (biotinyl-Phe-oxazolone) | self-aminoacylation (biotinyl-Ile-oxazolone) | self-aminoacylation (biotinyl-Leu-oxazolone) |
| --- | --- | --- | --- | --- | --- | --- |
| CUACUUUAAACAAUCGAUCUG [Fam1A.1 aminoacylation ribozyme variant] | 0.741 | 0.852 | 0.675 | 0.815 | 0.768 | 0.683 |
| GGGUUUGCUAAUAGUCGCAAG [Fam3.1 aminoacylation ribozyme variant] | 2.01 | 6.82 | 1.89 | 12.3 | 2.32 | 2.45 |
| CCACACUUCAACCAAACGGUC [Fam1B.1 aminoacylation ribozyme variant] | 0.846 | 0.727 | 0.628 | 0.797 | 0.872 | 0.729 |
| AUUCACGUAGAUCAUCGGGUG [Fam2.2 aminoacylation ribozyme variant] | 3.9 | 4.96 | 5.1 | 29.6 | 4.08 | 5.42 |
| CUUCUUCAAACAAUCGAUCUG [Fam1A.1 aminoacylation ribozyme variant] | 0.647 | 0.841 | 0.672 | 1.98 | 0.624 | 0.597 |
| UUUACCCUGGCCAUCGAGUGA [Fam2.1 aminoacylation ribozyme variant] | 2.52 | 5.04 | 3.22 | 16.7 | 2.06 | 3.97 |
| AUUACCCGGGUCAUCGAGUGC [Fam2.1 aminoacylation ribozyme variant] | 1.39 | 1.13 | 1.21 | 5.14 | 1.46 | 1.72 |
| UAGUUCGCUAAUAGUCGCAAG [Fam3.1 aminoacylation ribozyme variant] | 1.86 | 1.88 | 1.55 | 6.84 | 1.81 | 1.81 |
| CUAGUUGAAACAAUCGGUCUG [Fam1A.1 aminoacylation ribozyme variant] | 0.828 | 0.834 | 0.974 | 0.861 | 0.923 | 0.841 |
| AUUCACCUCGGUCCUCGGGUG [Fam2.2 aminoacylation ribozyme variant] | 4.23 | 7.07 | 6.33 | 53.2 | 4.17 | 7.19 |
| CUAUACUUCAAGCAAUCGGUC [Fam1B.1 aminoacylation ribozyme variant] | 0.936 | 9.69 | 0.837 | 21.3 | 0.782 | 1.06 |
| AUACUCCAAACAAUCGGUCUG [Fam1A.1 aminoacylation ribozyme variant] | 0.743 | 1.61 | 0.759 | 1.98 | 0.827 | 0.534 |
| CCACACUUCAAGCUAUCGUUC [Fam1B.1 aminoacylation ribozyme variant] | 0.908 | 0.521 | 0.542 | 0.96 | 0.677 | 0.574 |
| CUACUUCCAACAAUCGGUUUG [Fam1A.1 aminoacylation ribozyme variant] | 0.76 | 0.678 | 0.713 | 0.87 | 0.747 | 0.645 |
| CUAACUCAAACAAUCGGUCUG [Fam1A.1 aminoacylation ribozyme variant] | 0.742 | 1.24 | 0.648 | 3.32 | 0.761 | 0.716 |
| AUUCACCUAGGUCAUCUGGUG [Fam2.2 aminoacylation ribozyme variant] | 1.9 | 2.62 | 2.71 | 16.5 | 1.93 | 3.41 |
| AUUCAGCUAGCUCAUCGGGUG [Fam2.2 aminoacylation ribozyme variant] | 3.41 | 3.74 | 3.07 | 20.2 | 2.69 | 3.86 |
| AUUCACCUAAGUCAUCGCGUG [Fam2.2 aminoacylation ribozyme variant] | 7.56 | 15.7 | 13.4 | 110 | 6.77 | 17.7 |
| AUUCACCUAGUUCGUCGGGUG [Fam2.2 aminoacylation ribozyme variant] | 1.23 | 1.15 | 1.26 | 3.17 | 1.14 | 1.32 |
| AUUCUCCUAGGUCAUUGGGUG [Fam2.2 aminoacylation ribozyme variant] | 3.87 | 6.02 | 5.76 | 44 | 3.96 | 7.5 |
| AUUCACCUAGGAGAUCGGGUG [Fam2.2 aminoacylation ribozyme variant] | 3.54 | 5.46 | 4.82 | 34.3 | 3.82 | 7.83 |
| CUACACUCCAAGCAAUCGGUC [Fam1B.1 aminoacylation ribozyme variant] | 0.934 | 1.22 | 0.76 | 2.74 | 0.949 | 0.747 |
| AUUACCCUGAUCAUCAAGUGA [Fam2.1 aminoacylation ribozyme variant] | 1.77 | 3.1 | 2.3 | 3.86 | 1.57 | 2.77 |
| CGACUUCAAACACUCGGUCUG [Fam1A.1 aminoacylation ribozyme variant] | 1.52 | 2.31 | 1.61 | 2.7 | 1.33 | 1.39 |
| AAGUGUGCUAAUAGUCGCUAG [Fam3.1 aminoacylation ribozyme variant] | 0.925 | 0.788 | 0.976 | 0.823 | 1.23 | 0.893 |
